Changes are numbered by the printed parent chain. Where two headings read alike, the source gives them in different places.

For test [1], the target named is T1, human ActRIIA (human, UniProt P27037 20-135, limits assumed).
T1 construct: antigen in MSD-SET; also called ACVR2A; ActR2A
The experiment in a line: MSD-SET, preliminary.

In test [2] the target is T2, human ActRIIB (human, UniProt Q13705 19-137, limits assumed).
T2 construct: antigen in MSD-SET; also called ACVR2B; ActR2B
T2 sequence: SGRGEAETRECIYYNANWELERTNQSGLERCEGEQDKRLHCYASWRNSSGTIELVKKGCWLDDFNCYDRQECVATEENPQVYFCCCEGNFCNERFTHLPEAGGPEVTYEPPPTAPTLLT
Put plainly: MSD-SET, preliminary.

For test [3], the target named is T1, human ActRIIA. The experiment in a line: MSD-SET.
The target of test [4] is T2, human ActRIIB. The experiment in a line: MSD-SET.
Test [5] addresses T3, ActRIIA and ActRIIB (on TGFB/SMAD SBE Reporter HEK293 cells) (human). The experiment in a line: cell-based or functional assay.
The target in test [6] is T3, ActRIIA and ActRIIB (on TGFB/SMAD SBE …). The experiment in a line: cell-based or functional assay. The source holds these as a separate data set.
For test [7], the target named is T1, human ActRIIA. Put plainly: MSD-SET. This is another data set of the same source.
Test [8] deals with T2, human ActRIIB. The experiment in a line: MSD-SET. The source holds these as a separate data set.
Test [9] deals with T2, human ActRIIB. Put plainly: affinity measurement.

T1 sequence (P27037 20-135 limits assumed): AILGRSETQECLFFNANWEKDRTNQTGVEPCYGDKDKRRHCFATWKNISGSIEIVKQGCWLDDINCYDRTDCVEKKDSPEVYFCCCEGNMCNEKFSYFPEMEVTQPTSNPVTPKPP

B1: Antibody Soidawürstle (antibody, V domains shown)
VH: QVQLVQSGAEVRKPGSSVKVSCKASGYTFTSSYINWVRQAPGQGLEWMGTINPVSGSTSYAQKFQGRVTITADTSTSTAYMELSSLRSEDTAVYYCARGGWFDYWGQGTLVTVSS
VL: QSALTQPRSVSGSPGQSVTISCTGTSSDVGSYNRVNWYQQHPGKAPKLMIYGVSKRESGVPDRFSGSKSGNTASLTISGLQAEDEADYYCGTFAGGRYYGVFGGGTKLTVL
notes: full-length IgG; also called Soidawüsrstel
In turn, B1 yielded a Kd in test [1] of 0.0345 nM. This molecule returned a Kd in test [2] of 0.0508 nM. In test [3], this molecule showed a Kd of 0.0342 nM. The same molecule returned a Kd in [4] of 0.0055 nM. In test [5], this molecule gave an IC50, Myostatin SMAD RGA of 0.13 nM; an IC50 fold difference to bimagrumab, Myostatin SMAD RGA of 4.3 fold; an IC90, Activin SMAD RGA of 2.16 nM; an IC90, Myostatin SMAD RGA of 6.63 nM. In test [5], the IC90 fold difference to bimagrumab, Activin SMAD RGA amounted to 4.3 fold; the IC90 fold difference to bimagrumab, Myostatin SMAD RGA amounted to 2 fold; the IC95, Activin SMAD RGA was found to be 8.86 nM; the IC95, Myostatin SMAD RGA amounted to 35 nM. For the same molecule, in test [5], the IC95 fold difference to bimagrumab, Activin SMAD RGA was found to be 4.3 fold; the IC95 fold difference to bimagrumab, Myostatin SMAD RGA was found to be 1.6 fold; the IC99, Activin SMAD RGA is 200 nM; the IC99, Myostatin SMAD RGA came to 2000 nM. In [5], this molecule came in with an IC99 fold difference to bimagrumab, Activin SMAD RGA of 4.1 fold and an IC99 fold difference to bimagrumab, Myostatin SMAD RGA of 1.3 fold. In [6], the IC50, Activin SMAD RGA worked out at 0.16 nM; the IC50 fold difference to bimagrumab, Activin SMAD RGA worked out at 2 fold; the IC90, Activin SMAD RGA amounted to 1.81 nM; the IC90 fold difference to bimagrumab, Activin SMAD RGA came to 0.3 fold. In [6], this molecule returned an IC95, Activin SMAD RGA of 4.84 nM; an IC95 fold difference to bimagrumab, Activin SMAD RGA of 14.9 fold; an IC99, Activin SMAD RGA of 19.3 nM; an IC99 fold difference to bimagrumab, Activin SMAD RGA of 59.5 fold. In addition, in test [7], the dissociation constant (Kd) came to 0.0342 nM. Further, binding in [8] was characterised by a dissociation constant (Kd) of 0.0055 nM.

B2: Antibody Backstoikäs (antibody, V domains shown)
VH: B1 VH with R12K, S16A, T28K, I70M, A72R, T76I, S85R, E89D
VL: B1 VL with R8A, V18I, R34Y, E57P, S58R, P61S, D62N, R97S
notes: full-length IgG
As to B2, in test [9], the binding result was “binds”. Further, in [5], the IC50, Activin SMAD RGA is 0.18 nM; the IC50, Myostatin SMAD RGA is 0.0875 nM; the IC90, Activin SMAD RGA came out at 3.71 nM; the IC90, Myostatin SMAD RGA was determined as 1.23 nM.

Values taken from patent US20250243286A1 (SIXPEAKS BIO, published 2025).
